Reference: US20120021972A1 (CADILA HEALTHCARE, published 2012)
Starred links: 1 amine or outer side, 2 acyl side, 3 side chain; linkers in the order of their positions; H or OH if unused. Non-standard residues stand in square brackets, D forms with d. No end group written: not given here. NMe2F‑APPA = N-methyl-2-amino-5-(2-fluorophenyl)pentanoic acid, CN([C@@H](CCCc1ccccc1F)C(=O)[*:2])[*:1]; 2,4‑diF‑APPA = 2-amino-5-(2,4-difluorophenyl)pentanoic acid, O=C([C@H](CCCc1ccc(F)cc1F)N[*:1])[*:2]; ACPP = 2-amino-5-(3-chlorophenyl)pentanoic acid, O=C([C@H](CCCc1cccc(Cl)c1)N[*:1])[*:2]; 2Cl,4OMe‑APPA = 2-amino-5-(2-chloro-4-methoxyphenyl)pentanoic acid; 2CF3‑APPA = 2-amino-5-(2-(trifluoromethyl)phenyl)pentanoic acid; Bip(2'-Et-4'-OMe) = CCc1cc(OC)ccc1-c1ccc(C[C@H](N)C(=O)O)cc1; Nva(5-(3,5-Me2Ph)) = Cc1cc(C)cc(CCC[C@H](N)C(=O)O)c1; 2Cl‑APPA = 2-amino-5-(2-chlorophenyl)pentanoic acid; 2F‑APPA = 2-amino-5-(2-fluorophenyl)pentanoic acid; αMePhe(2-F) = C[C@](N)(Cc1ccccc1F)C(=O)O; Phe(2-F) = N[C@@H](Cc1ccccc1F)C(=O)O; NMeBip(OMe) = N-methylated Bip(OMe); hhPhe = N[C@@H](CCCc1ccccc1)C(=O)O; NMeD = CN[C@@H](CC(=O)O)C(=O)O; aThr = C[C@H](O)[C@H](N)C(=O)O; αMeP = C[C@@]1(C(=O)O)CCCN1; NMeAPPA = not defined here; CNB = not defined here; Aib = CC(C)(N)C(=O)O

How the values were obtained:
human GLP-1 receptor = human GLP-1 receptor (human, UniProt P43220 24-463); experiment: cell-based or functional assay
human GLP-1 receptor, sequence (P43220 24-463): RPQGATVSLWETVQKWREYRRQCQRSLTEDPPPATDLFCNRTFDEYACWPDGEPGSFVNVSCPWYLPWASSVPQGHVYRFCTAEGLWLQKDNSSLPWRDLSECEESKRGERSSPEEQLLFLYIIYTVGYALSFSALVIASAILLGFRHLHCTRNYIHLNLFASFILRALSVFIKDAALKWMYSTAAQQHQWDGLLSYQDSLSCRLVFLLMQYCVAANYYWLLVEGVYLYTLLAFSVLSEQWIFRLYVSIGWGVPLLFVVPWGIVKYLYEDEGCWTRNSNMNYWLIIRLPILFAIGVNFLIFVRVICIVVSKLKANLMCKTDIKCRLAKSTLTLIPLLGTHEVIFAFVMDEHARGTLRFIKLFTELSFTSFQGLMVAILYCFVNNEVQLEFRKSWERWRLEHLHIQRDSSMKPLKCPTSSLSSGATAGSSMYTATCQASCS

human glucagon receptor = human glucagon receptor (human, UniProt P47871 26-477); experiment: cell-based or functional assay

cAMP release, % activity, 1 nM (human GLP-1 receptor) [%] | cAMP release, % activity, 10 nM (human GLP-1 receptor) [%] | cAMP release, % activity, 100 nM (human GLP-1 receptor) [%] | cAMP release, % activity, 1 µM (human GLP-1 receptor) [%] | cAMP release, % activity, 10 µM (human GLP-1 receptor) [%] | inhibition of cAMP production, 1 nM (human glucagon receptor) [pmol/ml/µg prt] | inhibition of cAMP production, 10 nM (human glucagon receptor) [pmol/ml/µg prt] | inhibition of cAMP production, 100 nM (human glucagon receptor) [pmol/ml/µg prt] | inhibition of cAMP production, 1 µM (human glucagon receptor) [pmol/ml/µg prt] | inhibition of cAMP production, 10 µM (human glucagon receptor) [pmol/ml/µg prt] | Binder
40 | 81 | 87 | 95 | 98 | – | – | – | – | – | H[Aib]QGT[αMePhe(2-F)]TSD[Bip(2'-Et-4'-OMe)][ACPP] [Seq. ID. No. 39: H-Aib-QGT-(α-Me-2F-Phe)-TSD-Bip(OMe)-(ACPP)]
55 | 88 | 92 | 99 | 99 | 2 | 0 | 0 | 0 | 0 | H[Aib][CNB]G[aThr][αMePhe(2-F)][aThr]SD[Bip(2'-Et-4'-OMe)][2F‑APPA] (reading uncertain) [Seq. ID. No. 116: H-Aib-(CNB)-G-T(allo)-(α-Me-2F-Phe)-T(allo)-SD-Bip(OMe)-(2F-APPA)]
60 | 92 | 98 | 99 | 99 | 9 | 6 | 5 | 3 | 0 | H[Aib][CNB]G[aThr][αMePhe(2-F)][aThr]S[NMeD][NMeBip(OMe)][NMeAPPA] (reading uncertain) [Seq. ID. No. 154: H-Aib-(CNB)-G-T(allo)-(α-Me-2F-Phe)-T(allo)-S-(NMe)D-((NMe)Bip(OMe))-((NMe)(APPA))]
55 | 89 | 93 | 99 | 99 | – | – | – | – | – | HSQGTFTSD[Bip(2'-Et-4'-OMe)][2CF3‑APPA] [Seq. ID. No. 47: HSQGTFTSD-Bip(OMe)-(2CF3-APPA)]
99 | 99 | 99 | 99 | 99 | 3 | 0 | 0 | 0 | 0 | H[αMeP]QGTFTSD[Bip(2'-Et-4'-OMe)][ACPP] [Seq. ID. No. 11: H-(α-Me-Pro)-QGTFTSD-Bip(OMe)-(ACPP)]
60 | 92 | 98 | 99 | 99 | – | – | – | – | – | HSQGTFTSD[Bip(2'-Et-4'-OMe)][2Cl‑APPA] [Seq. ID. No. 50: HSQGTFTSD-Bip(OMe)-(2Cl-APPA)]
38 | 77 | 85 | 94 | 97 | 4 | 2 | 0 | 0 | 0 | H[Aib][CNB]GTFTSD[Bip(2'-Et-4'-OMe)][2Cl,4OMe‑APPA] (reading uncertain) [Seq. ID. No. 84: H-Aib-(CNB)-GTFTSD-Bip(OMe)-(2Cl,4OMe-APPA)]
39 | 81 | 89 | 96 | 99 | 6 | 5 | 2 | 0 | 0 | H[Aib][CNB]G[aThr][αMePhe(2-F)]TSD[Bip(2'-Et-4'-OMe)][2F‑APPA] (reading uncertain) [Seq. ID. No. 112: H-Aib-(CNB)-G-T(allo)-(α-Me-2F-Phe)-TSD-Bip(OMe)-(2F-APPA)]
39 | 81 | 89 | 96 | 99 | 5 | 3 | 1 | 0 | 0 | H[Aib][CNB]G[aThr][αMePhe(2-F)][aThr]SD[Bip(2'-Et-4'-OMe)][NMeAPPA] (reading uncertain) [Seq. ID. No. 130: H-Aib-(CNB)-G-T(allo)-(α-Me-2F-Phe)-T(allo)-SD-Bip(OMe)-((NMe)(APPA))]
86 | 99 | 99 | 99 | 99 | 5 | 2 | 0 | 0 | 0 | H[Aib][CNB]G[aThr][αMePhe(2-F)][aThr]S[NMeD][NMeBip(OMe)][NMe2F‑APPA] (reading uncertain)
38 | 78 | 86 | 95 | 98 | – | – | – | – | – | H[Aib]QGTFTSD[Bip(2'-Et-4'-OMe)][2,4‑diF‑APPA] [Seq. ID. No. 62: H-Aib-QGTFTSD-Bip(OMe)-(2,4-diF-APPA)]
99 | 99 | 99 | 99 | 99 | 0 | 0 | 0 | 0 | 0 | H[Aib][CNB]GT[αMePhe(2-F)][aThr]SD[Bip(2'-Et-4'-OMe)][2F‑APPA] (reading uncertain) [Seq. ID. No. 120: H-Aib-(CNB)-GT-(α-Me-2F-Phe)-T(allo)-SD-Bip(OMe)-(2F-APPA)]
82 | 87 | 92 | 99 | 99 | 4 | 2 | 0 | 0 | 0 | H[Aib][CNB]G[aThr][αMePhe(2-F)][aThr]SD[Bip(2'-Et-4'-OMe)][hhPhe] (reading uncertain) [Seq. ID. No. 114: H-Aib-(CNB)-G-T(allo)-(α-Me-2F-Phe)-T(allo)-SD-Bip(OMe)-(APPA)]
39 | 80 | 88 | 96 | 99 | – | – | – | – | – | H[Aib]QGTFTSD[Bip(2'-Et-4'-OMe)][2Cl,4OMe‑APPA] [Seq. ID. No. 68: H-Aib-QGTFTSD-Bip(OMe)-(2Cl, 4OMe-APPA)]
39 | 81 | 89 | 96 | 99 | – | – | – | – | – | H[Aib]QGT[Phe(2-F)]TSD[Bip(2'-Et-4'-OMe)][Nva(5-(3,5-Me2Ph))] [Seq. ID. No. 42: H-Aib-QGT-(2F-Phe)-TSD-Bip(OMe)-(ADMP)]
96 | 99 | 99 | 99 | 99 | 19 | 17 | 15 | 14 | 12 | H[Aib][CNB]G[aThr][αMePhe(2-F)][aThr]SD[Bip(2'-Et-4'-OMe)][hhPhe] (reading uncertain; also: thioamide bond between residues 10 and 11) [Seq. ID. No. 166: H-Aib-(CNB)-G-T(allo)-(α-Me-2F-Phe)-T(allo)-SD-Bip(OMe)-(C═S)-(APPA)]
38 | 77 | 85 | 94 | 97 | 18 | 16 | 12 | 8 | 6 | H[Aib][CNB]G[aThr][αMePhe(2-F)]TSD[Bip(2'-Et-4'-OMe)][hhPhe] (reading uncertain) [Seq. ID. No. 110: H-Aib-(CNB)-G-T(allo)-(α-Me-2F-Phe)-TSD-Bip(OMe)-(APPA)]
96 | 99 | 99 | 99 | 99 | 21 | 19 | 18 | 18 | 16 | H[Aib][CNB]G[aThr][αMePhe(2-F)][aThr]SD[Bip(2'-Et-4'-OMe)][2F‑APPA] (reading uncertain; also: thioamide bond between residues 10 and 11) [Seq. ID. No. 168: H-Aib-(CNB)-G-T(allo)-(α-Me-2F-Phe)-T(allo)-SD-Bip(OMe)-(C═S)-(2F-APPA)]
55 | 89 | 93 | 99 | 99 | 5 | 3 | 0 | 0 | 0 | H[Aib][CNB]G[aThr][αMePhe(2-F)][aThr]SD[NMeBip(OMe)][NMe2F‑APPA] (reading uncertain) [Seq. ID. No. 144: H-Aib-(CNB)-G-T(allo)-(α-Me-2F-Phe)-T(allo)-SD-((NMe)Bip(OMe))-((NMe)(2F-APPA))]
